What was measured:
[1] = biological target: RSV prefusion F (preF), DS-Cav1 (Respiratory Syncytial Virus, UniProt P03420 26-513); experiment: BLI, IgG on anti-human IgG sensor
RSV F on RSV-A2 virus [2] = biological target: RSV F on RSV-A2 virus (Respiratory Syncytial Virus (RSV-A2), UniProt P03420 26-574); experiment: cell-based or functional assay
[3] = biological target: RSV postfusion F (postF), F ΔFP (Respiratory Syncytial Virus, UniProt P03420 26-513); experiment: BLI, IgG on anti-human IgG sensor, 100 nM antigen, 1:1 fit
RSV F on RSV-A2 virus [4] = biological target: RSV F on RSV-A2 virus (Respiratory syncytial virus, RSV-A2, UniProt P03420 26-574); experiment: cell-based or functional assay
[5] = biological target: RSV postfusion F (postF), F ΔFP (Respiratory syncytial virus, UniProt P03420 26-513); experiment: BLI, IgG on anti-human IgG sensor, 100 nM antigen
[6] = biological target: RSV prefusion F (preF), DS-Cav1 (Respiratory syncytial virus, UniProt P03420 26-513); experiment: BLI, IgG on anti-human IgG sensor

B1: ADI-41525 (antibody, V domains shown)
VH: QVQLVQSGAEMKKPGSSVKVSCKASGRTFKYFALNWMRRAPGHGLEWIGGDIPISGSTNYAQKFQGRVTITADESASTAYMEVSRLRSDDTAVYYCASLHYDVSTGFSDAFDIWGQGTMVTVSS
VL: QSVLTQPASVSGSPGQSITISCTGTSSDVGAYNYVSWYQHHPGKAPKLMIFDVSNRPSGVSNRFSGSKSGNTASLTISGLQAEDEADYYCSSYRSTFSYVFGTGTKVTVL
notes: also called Ab 797; Antibody Number 797
[1]
  binding result: no binding
RSV F on RSV-A2 virus [2]
  Neutralization IC50 (RSV subtype A): > 25 µg/mL
[3]
  Kd: 0.327 nM

B2: ADI-41507 (antibody, V domains shown)
VH: QVTLKESGPTLVKPTQTLRLTCTFSGFSLNVISGVGVGWIRQPPGKALEWLALIYWDDDKRYSPSLKSRLTIAKDTSKNQVVLTMTNMDPVDTATYYCAHKGGSIEAAVGFDYWGQGTLVTVSS
VL: QSVLTQPPSVSGAPGQRVIISCTGSSSNIGAGFAVHWYQQLPGTAPKLLIYANTNRPSGVPDRFSGSKSGTSASLAITGLQAEDEADYYCQSYDTSLSGFYVFGTGTKLTVL
[1]
  binding result: no binding
RSV F on RSV-A2 virus [2]
  Neutralization IC50 (RSV subtype A): > 25 µg/mL
[3]
  Kd: 140 nM

B3: ADI-41574 (antibody, V domains shown)
VH: QITLKESGPTLVKPTQTLTLTCTFSGFSLSTSGVGVAWIRQPPGKALEWLALIYWDDDKRYSPSLKSRLTITKDTSKNQVVLTMTNMDPVDTATYYCAHSSVYTTPFDYWGQGSLVTVSS
VL: DIQLTQSPSTLSASVGDRVTITCRASQSISDWLAWYQQKPGKAPKLLIYKAFTLESGVPSRFSGSGSGTEFTLTISSLQPDDFATYYCQQYTSYWTFGQGTKVEIK
notes: also called Ab 850; Antibody Number 850
RSV F on RSV-A2 virus [4]
  Neutralization IC50 (RSV subtype A): > 25 µg/mL
[5]
  Kd: 123 nM
[6]
  binding result: no binding (tested: 100 nM antigen)

B4: ADI-41546 (antibody, V domains shown)
VH: QVQLVQSGAEVKKPGESLKISCKGSGYSFTNYWIGWVRQMPGKGLEWMGIIFSADSDTRYSPSFQGQVTISADKSISTAYLQWSSLKASDTAMYYCARQWGITGDAFDIWGQGTMVTVSS
VL: DIQVTQSPSFLSASVGDRVTITCRASQGISGYLAWYQQKPGKAPKLLIYAASTLQSGVPSRFSGSGSGTEFTLTISSLQPEDFATYYCQQLNSYPYTFGQGTKVEIK
[1]
  binding result: no binding
RSV F on RSV-A2 virus [2]
  Neutralization IC50 (RSV subtype A): > 25 µg/mL
[3]
  Kd: 1.08 nM

B5: ADI-41553 (antibody, V domains shown)
VH: EVQLVESETEVKKPGASVKVSCKASGYTFTKYGISWVRQAPGQGLEWMGWISAYNGNTMYPHKLLGRVTMTTDTSTSTAYMELRSLRSDDTAVYYCARDQTYYDFWSGYYTYWGQGTLVTVSS
VL: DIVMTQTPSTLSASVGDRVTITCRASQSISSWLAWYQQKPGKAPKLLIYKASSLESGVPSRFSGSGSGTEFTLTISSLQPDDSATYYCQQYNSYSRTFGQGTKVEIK
notes: also called Ab 835; Antibody Number 835
RSV F on RSV-A2 virus [4]
  Neutralization IC50 (RSV subtype A): > 25 µg/mL
[5]
  Kd: 0.804 nM
[6]
  binding result: no binding (tested: 100 nM antigen)

B6: ADI-41465 (antibody, V domains shown)
VH: QVQLVQSGGGVVQPGRSLRLSCAASGFTFTSYDMHWVRQAPGKGLEWVAIISHDGSKQFYADSVKGRFTISRDNSKNTLYLQMNSLRPEDTAMYYCAKDTPSWGLLAEFFRHWGQGTLVTVSS
VL: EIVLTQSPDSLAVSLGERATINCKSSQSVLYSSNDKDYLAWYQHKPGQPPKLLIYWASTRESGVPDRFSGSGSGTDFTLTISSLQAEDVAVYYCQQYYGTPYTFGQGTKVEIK
[1]
  binding result: no binding
RSV F on RSV-A2 virus [2]
  Neutralization IC50 (RSV subtype A): > 25 µg/mL
[3]
  Kd: 1.73 nM

B7: ADI-41576 (antibody, V domains shown)
VH: QVTLKESGPTLVKPTQTLTLSCSFSGFSLSAYAVGVGWIRQPPGKALEWLALIYWDDDKRYSPSLETRLTITKDTSKNQVVLTMTKMDPVDTATYYCVYSYNGYYEYMDVWGNGTTVTVSS
VL: DIVMTQSPATLSLSPGERATLSCRASQSVSNYLAWYQQKPGQAPRLLISGASNRATGIPDRFSGSGSGTDFTLTITTPEPEDFAVYYCQQRNAWPRTFGQGTKVEIK
notes: also called Ab 851; Antibody Number 851
RSV F on RSV-A2 virus [4]
  Neutralization IC50 (RSV subtype A): > 25 µg/mL
[5]
  Kd: 1.43 nM
[6]
  binding result: no binding (tested: 100 nM antigen)

B8: ADI-41690 (antibody, V domains shown)
VH: QVQLVQSGAEVKKPGESLRISCKGSGYSFSSHWIGWVRQKPGKGLEWMGIIYPGDSDTRYSPSFQGHVTISADKSISTAYLRWSSLKASDTAIYYCAKRMVGDYYGMNLWGQGTTVTVSS
VL: EIVMTQSPSSLSASVGDRVTITCQASQDISNRLNWYQQKPGKAPKLLIYDASNLETGVPSRFSGSGSGTDFTFTISSLQPEDIATYFCQQYDYLLWFTFGPGTKVDIK
notes: also called Ab 893; Antibody Number 893
RSV F on RSV-A2 virus [4]
  Neutralization IC50 (RSV subtype A): > 25 µg/mL
[5]
  Kd: 8.78 nM
[6]
  binding result: no binding (tested: 100 nM antigen)

B9: ADI-41556 (antibody, V domains shown)
VH: EVQLLESGGGLVKPGGSLRLSCAASGFSFSSYSMHWVRQAPGKGLEWVSSISSSSTYIYYADSVKGRFTISRDNAKTSLFLQMNSLRAEDTAVYYCARDPYSSGWYWDWGQGTTVTVSS
VL: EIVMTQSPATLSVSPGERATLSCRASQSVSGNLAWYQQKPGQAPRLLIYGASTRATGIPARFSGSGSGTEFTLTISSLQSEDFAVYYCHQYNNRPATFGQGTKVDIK
RSV F on RSV-A2 virus [4]
  Neutralization IC50 (RSV subtype A): > 25 µg/mL
[5]
  Kd: 2.28 nM
[6]
  binding result: no binding (tested: 100 nM antigen)

B10: ADI-41477 (antibody, V domains shown)
VH: QVQLVQSGAEVKKPGASVRVSCKASGYPFISYYIHWVRQAPGQGLEWMGMINTNGGSTHYAQKFQGRVTMTRDTSTTTIYMELSRLKSEDTAYYFCARDNTETVLHGFWSGYGSYLDYWGQGTLVTVSS
VL: EIVLTQSPGTLSLSPGGRATLSCRASQSVTSSYLAWYQQRPGQAPRLLIYGASSRAAGIPDRFSGSGSGTDFTLTISRLEPEDFAVYYCQQYGSAPLTFGGGTKLEIK
notes: also called Ab 760; Antibody Number 760
[1]
  binding result: no binding
RSV F on RSV-A2 virus [2]
  Neutralization IC50 (RSV subtype A): > 25 µg/mL
[3]
  Kd: 0.505 nM

B11: ADI-41458 (antibody, V domains shown)
VH: EVQLLESGSGLVKPSQTLSLTCAVSGDSLNSALYSWSWIRQPPGKGLEWIGYIYYSGSTYYNSSLKSRVTISIDRSKNQFSLNLNSVTAADTAVYYCASLQTGYSSGWFFDFWGPGTLVTVSS
VL: EIVLTQSPGTLSLSPGERATLSCRASQSVSRTYLTWYQQKPGQAPRLLIYGASNRATGIPDRFSGSGSGTDFTLTISRLEPEDFAVYYCQQYGSTPLFGQGTKVEIK
[1]
  binding result: no binding
RSV F on RSV-A2 virus [2]
  Neutralization IC50 (RSV subtype A): > 25 µg/mL
[3]
  Kd: 0.549 nM

B12: ADI-41610 (antibody, V domains shown)
VH: EVQLLESGGGVVQPGRSLRLSCAASELSFRNYGMHWVRQAPGKGLEWVAVISYDGNDKYYADSVKGRFTISRDNSKKTLYLQMDSLRAEDTAVYYCAKEGAYCGGDCFSSWGQGTLVTVSS
VL: GIQLTQSPSSLSASVGDRVTITCRASQSSSSYLNWYQQKPGKAPKLLIYAASSLQSGVPSRFSGSGSGTDFTLTISSLQPEDFATYYCQQSYSFGGGTKVEIK
notes: also called Ab 884; Antibody Number 884
RSV F on RSV-A2 virus [4]
  Neutralization IC50 (RSV subtype A): > 25 µg/mL
[5]
  Kd: 0.978 nM
[6]
  binding result: no binding (tested: 100 nM antigen)

B13: ADI-41582 (antibody, V domains shown)
VH: EVQLVESGPGLVKPSQTLSLTCTVSGGPISSGVYYWSWIRQHPGKGLESIGYIYYSGSTHYNPSLKTRVTISLDTSKNQFSLKLSSVTAADTAVYYCARGCSGGSCYLYAFDIWGQGTTVTVSS
VL: QPVLTQPPSVSVAPGQTARITCGGNNIGTKSVHWYQQKPGQAPLLVVYDDSDRPSGIPERFSGSNSGNTATLTISRVEAGDEADFYCQVWDYATDHVVFGGGTKLTVL
notes: also called Ab 856; Antibody Number 856
RSV F on RSV-A2 virus [4]
  Neutralization IC50 (RSV subtype A): > 25 µg/mL
[5]
  Kd: 0.911 nM
[6]
  binding result: no binding (tested: 100 nM antigen)

B14: ADI-41544 (antibody, V domains shown)
VH: QVQLVQSGAEVKKPGESLKISCKGSGYSFTNYWIGWVRQMPGKGLEWMGIIFPADSDTRYSPSFQGQVTISADKSVSTAYLQWTSLKASDTAIYYCARLGVAAAGGYWGQGTLVTVSS
VL: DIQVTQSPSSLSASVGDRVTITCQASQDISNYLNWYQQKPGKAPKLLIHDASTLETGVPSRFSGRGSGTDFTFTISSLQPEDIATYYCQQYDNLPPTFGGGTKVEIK
notes: also called Ab 816; Antibody Number 816
[1]
  binding result: no binding
RSV F on RSV-A2 virus [2]
  Neutralization IC50 (RSV subtype A): > 25 µg/mL
[3]
  Kd: 0.805 nM

B15: ADI-41562 (antibody, V domains shown)
VH: QVQLVQSGAEVKKPGASVRVSCKTSGYAFSKYGISWVRQAPGQGLEWIGWISAYNENTHFSHKFLGRVTMTTDTSTGIAYMDLRSLKSDDTAVYYCARDWYSLGSDWYFGPMFDYWGQGTLVTVSS
VL: EIVLTQSPDTLSVSPGERATLSCRASQSVTTNLAWYQQKPGHAPRLLIYGASTRATGIPARFSGSGSGTEFTLTISSLQSEDFAIYYCQQYTNWPRTFGQGTKVEIK
notes: also called Ab 842; Antibody Number 842
RSV F on RSV-A2 virus [4]
  Neutralization IC50 (RSV subtype A): > 25 µg/mL
[5]
  Kd: 0.676 nM
[6]
  binding result: no binding (tested: 100 nM antigen)

B16: ADI-41479 (antibody, V domains shown)
VH: QVQLVQSGAEVKKPGESLKISCKGSGYSFISYWIGWVRQMPGKGLEWMGIIYPADSDTRYSPSFQGQVTISVDKSISTAYLQWSSLKASDTGMYYCVRYGVGGTAPRYWGQGTTVTVSS
VL: NFMLTQPHSVSESPGKTVTISCTGSSGSIASNYVHWYQQRPGSAPTTVIYEDNQRPSGVPDRFSGSIDSSSNSASLTISGLKTEDEADYYCQSYDISNLWVFGGGTKLTVL
[1]
  binding result: no binding
RSV F on RSV-A2 virus [2]
  Neutralization IC50 (RSV subtype A): 0.46 µg/mL
[3]
  Kd: 33.1 nM

B17: ADI-41805 (antibody, V domains shown)
VH: QVQLVQSGAEVKKPGESLKISCKASGYSFTSYWIAWVRQMPGKGLEWMGIIFPGDSDTRYSPSFQGQVTISADKSISTAYLQWSSLEASDTAMYYCAKSTTYYYYGLDVWGQGTTVTVSS
VL: QPVLTQPASVSGSPGQSITISCTGTSSDVGGYDYVSWYQQYPGKAPKLMIYEVSNRPLGVSNRFSGSRSGYTASLTISGLQAEDETNYYCSSYTSSRTWVFGGGTKLTVL
notes: also called Ab 914; Antibody Number 914
RSV F on RSV-A2 virus [4]
  Neutralization IC50 (RSV subtype A): > 25 µg/mL
[5]
  Kd: 2 nM
[6]
  binding result: no binding (tested: 100 nM antigen)

B18: ADI-41488 (antibody, V domains shown)
VH: EVQLVESGPGLVKPSETLSLTCTVSGGSINSDYWNWIRQTPGKGLEWIGYIFYSGNTNYNPSLKSRVTISIDTSKKKFSLQVTSVTAADTAVYYCARMGTLKFDFDNWGQGTLVTVSS
VL: QSALTQPRSVSGSPGQSVTIPCTGTSSDVGAYKYVSWYQQHPGKAPKLIIYDVTKRPSGVPNRFSGSKSGNTASLTISGLQAEDEADYYCCSYAGTHTYWVFGGGTKVTVL
notes: also called Ab 769; Antibody Number 769
[1]
  binding result: no binding
RSV F on RSV-A2 virus [2]
  Neutralization IC50 (RSV subtype A): > 25 µg/mL
[3]
  Kd: 0.605 nM

B19: ADI-41462 (antibody, V domains shown)
VH: QVQLQQWGAGLVKPSETLSLSCDVYGGSFSGYYWTWIRQPPGKGLEWIGEINHSGRTNYNPSLKNRVTISVDTSKKQFSLKLSSVTAADTAVYFCARAPYYDIVTDYNITTAYFYGMDVWGQGTTVTVSS
VL: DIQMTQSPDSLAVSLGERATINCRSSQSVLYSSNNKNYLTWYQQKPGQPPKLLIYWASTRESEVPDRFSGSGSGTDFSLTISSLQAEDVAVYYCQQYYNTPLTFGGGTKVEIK
[1]
  binding result: no binding
RSV F on RSV-A2 virus [2]
  Neutralization IC50 (RSV subtype A): > 25 µg/mL
[3]
  Kd: 1.54 nM
